From patent US20220105150A1, “AMPHIPATHIC ALPHA-HELICAL ANTIMICROBIAL PEPTIDES TREAT INFECTIONS BY GRAM-NEGATIVE PATHOGENS” (priority 2019, published 2022)
Square brackets hold non-standard residues; d marks the D form. Dab = NCC[C@H](N)C(=O)O

Assays:
[1] = target: the molecule itself; assay: RP-HPLC temperature profiling, self-association (dimerization/oligomerization) against random coil control RC
serum proteins = assay: cell-based or functional assay

MIC (µM) against A. baumannii strain 649 in 25% human serum (no serum: 0.7) (serum proteins) [µM]	MIC (µM) against A. baumannii strain 649 in 25% human serum (no serum: 0.4) (serum proteins) [µM]	Binder	PA (self-association parameter) [1] [min]
0.7	–	Ac-[dK][dL][dK][dS][dL][dL][dK][dT][dL][dS][dK][dA][dK][dA][dA][dK][dL][dK][dT][dL][dL][dK][dA][dL][dS][dS]-NH2 (SMILES CC(=O)N[C@H](CCCCN)C(=O)N[C@H](CC(C)C)C(=O)N[C@H](CCCCN)C(=O)N[C@H](CO)C(=O)N[C@H](CC(C)C)C(=O)N[C@H](CC(C)C)C(=O)N[C@H](CCCCN)C(=O)N[C@@H](C(=O)N[C@H](CC(C)C)C(=O)N[C@H](CO)C(=O)N[C@H](CCCCN)C(=O)N[C@H](C)C(=O)N[C@H](CCCCN)C(=O)N[C@H](C)C(=O)N[C@H](C)C(=O)N[C@H](CCCCN)C(=O)N[C@H](CC(C)C)C(=O)N[C@H](CCCCN)C(=O)N[C@@H](C(=O)N[C@H](CC(C)C)C(=O)N[C@H](CC(C)C)C(=O)N[C@H](CCCCN)C(=O)N[C@H](C)C(=O)N[C@H](CC(C)C)C(=O)N[C@H](CO)C(=O)N[C@H](CO)C(N)=O)[C@H](C)O)[C@H](C)O, Designed 26-residue AMP; Lys at 3, 7, 11, 18, 22; Ser26; Lys13/Lys16 specificity determinants; also called D101(5 Lys-1)) [D101(Lys1Ser26-5Lys-1)]	6
–	0.7	Ac-[dK][dL][Dab][dS][dL][dL][Dab][dT][dL][dS][Dab][dA][dK][dA][dA][dK][dL][Dab][dT][dL][dL][Dab][dA][dL][dS][dS]-NH2 (SMILES CC(=O)N[C@H](CCCCN)C(=O)N[C@H](CC(C)C)C(=O)N[C@@H](CCN)C(=O)N[C@H](CO)C(=O)N[C@H](CC(C)C)C(=O)N[C@H](CC(C)C)C(=O)N[C@@H](CCN)C(=O)N[C@@H](C(=O)N[C@H](CC(C)C)C(=O)N[C@H](CO)C(=O)N[C@@H](CCN)C(=O)N[C@H](C)C(=O)N[C@H](CCCCN)C(=O)N[C@H](C)C(=O)N[C@H](C)C(=O)N[C@H](CCCCN)C(=O)N[C@H](CC(C)C)C(=O)N[C@@H](CCN)C(=O)N[C@@H](C(=O)N[C@H](CC(C)C)C(=O)N[C@H](CC(C)C)C(=O)N[C@@H](CCN)C(=O)N[C@H](C)C(=O)N[C@H](CC(C)C)C(=O)N[C@H](CO)C(=O)N[C@H](CO)C(N)=O)[C@H](C)O)[C@H](C)O, Designed 26-residue AMP; Ser26; Lys13/Lys16 specificity determinants; also called D102(5 Dab-1)) [D102(Lys1Ser26-5Dab-1)]	0
0.2	–	Ac-[dK][dL][Dab][dS][dL][dL][Dab][dT][dL][dS][Dab][dA][dK][dA][dA][dK][dL][Dab][dT][dL][dL][Dab][dA][dL][dS][Dab]-NH2 (not fully specified, Designed 26-residue AMP; Lys13/Lys16 specificity determinants; also called D86(6 Dab-1); D86-6 Dab-1) [D86(Lys1-6Dab-1)]	0
